Target: T1, His6-XPF (xeroderma pigmentosum complementation group F), wild type (human, UniProt Q92889 1-916)
T1 construct: XPF (ERCC4), human; Always co-expressed with ERCC1; also called ERCC4; XPF^WT; source: Sf9 (small-scale assays: Sf9 or Hi5), baculovirus co-expression with ERCC1; purified as complexes (Ni-NTA or Strep-Tactin, Capto HiRes Q, Superdex 200) or in insect cell lysate; not shown: His6, N-terminal, kept
Experiment: co-purification (Strep-Tactin, ion exchange, SEC); co-infection of Sf9 with His6-XPF-ERCC1(-SLX4IP) and Twin-Strep-SLX4 fragment viruses; capture by the Twin-Strep tag on SLX4 on Strep-Tactin, 250 mM KCl, 40 mM HEPES-KOH pH 7.9, then Capto HiRes Q and Superdex 200; SDS-PAGE
Conditions: partners not purified

B1: Twin-Strep-SLX4^330-555 (domain or fragment, human, UniProt Q8IY92 330-555, looked up)
chain: VPQIPECPICGKPFLTLKSRTSHLKQCAVKMEVGPQLLLQAVRLQTAQPEGSSSPPMFSFSDHSRGLKRRGPTSKKEPRKRRKVDEAPSEDLLVAMALSRSEMEPGAAVPALRLESAFSERIRPEAENKSRKKKPPVSPPLLLVQDSETTGRQIEDRVALLLSEEVELSSTPPLPASRILKEGWERAGQCPPPPERKQSFLWEGSALTGAWAMEDFYTARLVPPLV
notes: from clone HsCD00821809 (DNASU) in vector 438-Sn; source: Sf9 (small-scale assays: Sf9 or Hi5), baculovirus co-infection with His6-XPF-ERCC1(-SLX4IP); purified as complexes (Strep-Tactin, Capto HiRes Q, Superdex 200) or in insect cell lysate; not shown: twin-Strep, N-terminal, kept
Question: Does B1 bind?
Answer: binds

Reference: publication PMC12804970, “Molecular basis of XPF-ERCC1 targeting to SLX4-dependent DNA repair pathways” (Nature Communications, 2025)
